Results from doi:10.1101/2023.01.10.523378.
“And” between values parts separate entries of the source, which are not always exact repeats. Identical values can stand only once.

What was measured:
[1] = biological target: rat CaMKIIα holoenzyme (apo, nonphosphorylated) (rat) (UniProt P11275); assay: high-speed atomic force microscopy
[2] = biological target: rat CaMKIIα holoenzyme phosphorylated at Thr286 (rat) (UniProt P11275); assay: high-speed atomic force microscopy

Row | fraction of Ca2+/CaM bound longer than 60 s [1] | fraction of Ca2+/CaM bound longer than 60 s [2] | stoichiometry N [1] | Substance
1 | 41.1% | 77.3% |  | Ca2+/calmodulin (from UniProt P0DP23 1-149) (natural protein)
2 |  |  | 12 and 14 | rat CaMKIIα holoenzyme (apo, nonphosphorylated) (from UniProt P11275 1-478)
